target: T1, IL-1β (UniProt P01584 117-269); assay: Biacore, periplasmic extract
T1 construct: Antigen immobilised on the Biacore chip

| Binder | fold difference in affinity vs original [fold] | binding result |
| --- | --- | --- |
| XPA23 light chain D28E (Fab, V domains shown) VH: EVQLLESGGGLVQPGGSLRLSCAASGFTFSKYFMFWVRQAPGKGLEWVSVISPSGGMTRYADSVKGRFTISRDNSKNTLYLQMNSLRAEDTAVYYCARVGYGGNSDYWGQGTLVTVSS VL: DIQMTQSPSSVSASVGDRLTIICRASQEINRWLAWYQQTPGNAPKLLIHSATSLQSGVPSRFSGSGSGTDFTLTINSLQPEDFATYYCQQADSFPLTFGGGTKVEIK | 0.74 |  |
| XPA23 light chain D28T (Fab, V domains shown) VH: EVQLLESGGGLVQPGGSLRLSCAASGFTFSKYFMFWVRQAPGKGLEWVSVISPSGGMTRYADSVKGRFTISRDNSKNTLYLQMNSLRAEDTAVYYCARVGYGGNSDYWGQGTLVTVSS VL: DIQMTQSPSSVSASVGDRLTIICRASQTINRWLAWYQQTPGNAPKLLIHSATSLQSGVPSRFSGSGSGTDFTLTINSLQPEDFATYYCQQADSFPLTFGGGTKVEIK | 1.19 |  |
| XPA23 light chain D28V (Fab, V domains shown) VH: EVQLLESGGGLVQPGGSLRLSCAASGFTFSKYFMFWVRQAPGKGLEWVSVISPSGGMTRYADSVKGRFTISRDNSKNTLYLQMNSLRAEDTAVYYCARVGYGGNSDYWGQGTLVTVSS VL: DIQMTQSPSSVSASVGDRLTIICRASQVINRWLAWYQQTPGNAPKLLIHSATSLQSGVPSRFSGSGSGTDFTLTINSLQPEDFATYYCQQADSFPLTFGGGTKVEIK | 0.85 |  |
| XPA23 light chain D28S (Fab, V domains shown) VH: EVQLLESGGGLVQPGGSLRLSCAASGFTFSKYFMFWVRQAPGKGLEWVSVISPSGGMTRYADSVKGRFTISRDNSKNTLYLQMNSLRAEDTAVYYCARVGYGGNSDYWGQGTLVTVSS VL: DIQMTQSPSSVSASVGDRLTIICRASQSINRWLAWYQQTPGNAPKLLIHSATSLQSGVPSRFSGSGSGTDFTLTINSLQPEDFATYYCQQADSFPLTFGGGTKVEIK | 5.25 |  |
| XPA23 light chain D28R (Fab, V domains shown) VH: EVQLLESGGGLVQPGGSLRLSCAASGFTFSKYFMFWVRQAPGKGLEWVSVISPSGGMTRYADSVKGRFTISRDNSKNTLYLQMNSLRAEDTAVYYCARVGYGGNSDYWGQGTLVTVSS VL: DIQMTQSPSSVSASVGDRLTIICRASQRINRWLAWYQQTPGNAPKLLIHSATSLQSGVPSRFSGSGSGTDFTLTINSLQPEDFATYYCQQADSFPLTFGGGTKVEIK | 0.94 |  |
| XPA23 light chain D28L (Fab, V domains shown) VH: EVQLLESGGGLVQPGGSLRLSCAASGFTFSKYFMFWVRQAPGKGLEWVSVISPSGGMTRYADSVKGRFTISRDNSKNTLYLQMNSLRAEDTAVYYCARVGYGGNSDYWGQGTLVTVSS VL: DIQMTQSPSSVSASVGDRLTIICRASQLINRWLAWYQQTPGNAPKLLIHSATSLQSGVPSRFSGSGSGTDFTLTINSLQPEDFATYYCQQADSFPLTFGGGTKVEIK | 9.64 |  |
| XPA23 light chain D92H (Fab, V domains shown) VH: EVQLLESGGGLVQPGGSLRLSCAASGFTFSKYFMFWVRQAPGKGLEWVSVISPSGGMTRYADSVKGRFTISRDNSKNTLYLQMNSLRAEDTAVYYCARVGYGGNSDYWGQGTLVTVSS VL: DIQMTQSPSSVSASVGDRLTIICRASQDINRWLAWYQQTPGNAPKLLIHSATSLQSGVPSRFSGSGSGTDFTLTINSLQPEDFATYYCQQAHSFPLTFGGGTKVEIK | 0.63 |  |
| XPA23 light chain D28W (Fab, V domains shown) VH: EVQLLESGGGLVQPGGSLRLSCAASGFTFSKYFMFWVRQAPGKGLEWVSVISPSGGMTRYADSVKGRFTISRDNSKNTLYLQMNSLRAEDTAVYYCARVGYGGNSDYWGQGTLVTVSS VL: DIQMTQSPSSVSASVGDRLTIICRASQWINRWLAWYQQTPGNAPKLLIHSATSLQSGVPSRFSGSGSGTDFTLTINSLQPEDFATYYCQQADSFPLTFGGGTKVEIK | 3.81 |  |
| XPA23 light chain D92Q (Fab, V domains shown) VH: EVQLLESGGGLVQPGGSLRLSCAASGFTFSKYFMFWVRQAPGKGLEWVSVISPSGGMTRYADSVKGRFTISRDNSKNTLYLQMNSLRAEDTAVYYCARVGYGGNSDYWGQGTLVTVSS VL: DIQMTQSPSSVSASVGDRLTIICRASQDINRWLAWYQQTPGNAPKLLIHSATSLQSGVPSRFSGSGSGTDFTLTINSLQPEDFATYYCQQAQSFPLTFGGGTKVEIK | 0.56 |  |
| XPA23 light chain D28H (Fab, V domains shown) VH: EVQLLESGGGLVQPGGSLRLSCAASGFTFSKYFMFWVRQAPGKGLEWVSVISPSGGMTRYADSVKGRFTISRDNSKNTLYLQMNSLRAEDTAVYYCARVGYGGNSDYWGQGTLVTVSS VL: DIQMTQSPSSVSASVGDRLTIICRASQHINRWLAWYQQTPGNAPKLLIHSATSLQSGVPSRFSGSGSGTDFTLTINSLQPEDFATYYCQQADSFPLTFGGGTKVEIK | 1.23 |  |
| XPA23 light chain D28N (Fab, V domains shown) VH: EVQLLESGGGLVQPGGSLRLSCAASGFTFSKYFMFWVRQAPGKGLEWVSVISPSGGMTRYADSVKGRFTISRDNSKNTLYLQMNSLRAEDTAVYYCARVGYGGNSDYWGQGTLVTVSS VL: DIQMTQSPSSVSASVGDRLTIICRASQNINRWLAWYQQTPGNAPKLLIHSATSLQSGVPSRFSGSGSGTDFTLTINSLQPEDFATYYCQQADSFPLTFGGGTKVEIK | 1 |  |
| XPA23 light chain D28G (Fab, V domains shown) VH: EVQLLESGGGLVQPGGSLRLSCAASGFTFSKYFMFWVRQAPGKGLEWVSVISPSGGMTRYADSVKGRFTISRDNSKNTLYLQMNSLRAEDTAVYYCARVGYGGNSDYWGQGTLVTVSS VL: DIQMTQSPSSVSASVGDRLTIICRASQGINRWLAWYQQTPGNAPKLLIHSATSLQSGVPSRFSGSGSGTDFTLTINSLQPEDFATYYCQQADSFPLTFGGGTKVEIK | 1.21 |  |
| XPA23 light chain D92F (Fab, V domains shown) VH: EVQLLESGGGLVQPGGSLRLSCAASGFTFSKYFMFWVRQAPGKGLEWVSVISPSGGMTRYADSVKGRFTISRDNSKNTLYLQMNSLRAEDTAVYYCARVGYGGNSDYWGQGTLVTVSS VL: DIQMTQSPSSVSASVGDRLTIICRASQDINRWLAWYQQTPGNAPKLLIHSATSLQSGVPSRFSGSGSGTDFTLTINSLQPEDFATYYCQQAFSFPLTFGGGTKVEIK | 0.26 |  |
| XPA23 light chain D28I (Fab, V domains shown) VH: EVQLLESGGGLVQPGGSLRLSCAASGFTFSKYFMFWVRQAPGKGLEWVSVISPSGGMTRYADSVKGRFTISRDNSKNTLYLQMNSLRAEDTAVYYCARVGYGGNSDYWGQGTLVTVSS VL: DIQMTQSPSSVSASVGDRLTIICRASQIINRWLAWYQQTPGNAPKLLIHSATSLQSGVPSRFSGSGSGTDFTLTINSLQPEDFATYYCQQADSFPLTFGGGTKVEIK |  | no binding |
| XPA23 light chain D28P (Fab, V domains shown) VH: EVQLLESGGGLVQPGGSLRLSCAASGFTFSKYFMFWVRQAPGKGLEWVSVISPSGGMTRYADSVKGRFTISRDNSKNTLYLQMNSLRAEDTAVYYCARVGYGGNSDYWGQGTLVTVSS VL: DIQMTQSPSSVSASVGDRLTIICRASQPINRWLAWYQQTPGNAPKLLIHSATSLQSGVPSRFSGSGSGTDFTLTINSLQPEDFATYYCQQADSFPLTFGGGTKVEIK | 1.17 |  |
| XPA23 light chain D28F (Fab, V domains shown) VH: EVQLLESGGGLVQPGGSLRLSCAASGFTFSKYFMFWVRQAPGKGLEWVSVISPSGGMTRYADSVKGRFTISRDNSKNTLYLQMNSLRAEDTAVYYCARVGYGGNSDYWGQGTLVTVSS VL: DIQMTQSPSSVSASVGDRLTIICRASQFINRWLAWYQQTPGNAPKLLIHSATSLQSGVPSRFSGSGSGTDFTLTINSLQPEDFATYYCQQADSFPLTFGGGTKVEIK | 1.43 |  |
| XPA23 light chain D92R (Fab, V domains shown) VH: EVQLLESGGGLVQPGGSLRLSCAASGFTFSKYFMFWVRQAPGKGLEWVSVISPSGGMTRYADSVKGRFTISRDNSKNTLYLQMNSLRAEDTAVYYCARVGYGGNSDYWGQGTLVTVSS VL: DIQMTQSPSSVSASVGDRLTIICRASQDINRWLAWYQQTPGNAPKLLIHSATSLQSGVPSRFSGSGSGTDFTLTINSLQPEDFATYYCQQARSFPLTFGGGTKVEIK |  | no binding |
| XPA23 light chain D92N (Fab, V domains shown) VH: EVQLLESGGGLVQPGGSLRLSCAASGFTFSKYFMFWVRQAPGKGLEWVSVISPSGGMTRYADSVKGRFTISRDNSKNTLYLQMNSLRAEDTAVYYCARVGYGGNSDYWGQGTLVTVSS VL: DIQMTQSPSSVSASVGDRLTIICRASQDINRWLAWYQQTPGNAPKLLIHSATSLQSGVPSRFSGSGSGTDFTLTINSLQPEDFATYYCQQANSFPLTFGGGTKVEIK | 0.67 |  |
| XPA23 light chain D92E (Fab, V domains shown) VH: EVQLLESGGGLVQPGGSLRLSCAASGFTFSKYFMFWVRQAPGKGLEWVSVISPSGGMTRYADSVKGRFTISRDNSKNTLYLQMNSLRAEDTAVYYCARVGYGGNSDYWGQGTLVTVSS VL: DIQMTQSPSSVSASVGDRLTIICRASQDINRWLAWYQQTPGNAPKLLIHSATSLQSGVPSRFSGSGSGTDFTLTINSLQPEDFATYYCQQAESFPLTFGGGTKVEIK | 0.99 |  |
| XPA23 light chain D92K (Fab, V domains shown) VH: EVQLLESGGGLVQPGGSLRLSCAASGFTFSKYFMFWVRQAPGKGLEWVSVISPSGGMTRYADSVKGRFTISRDNSKNTLYLQMNSLRAEDTAVYYCARVGYGGNSDYWGQGTLVTVSS VL: DIQMTQSPSSVSASVGDRLTIICRASQDINRWLAWYQQTPGNAPKLLIHSATSLQSGVPSRFSGSGSGTDFTLTINSLQPEDFATYYCQQAKSFPLTFGGGTKVEIK | 0.23 |  |
| XPA23 light chain D28K (Fab, V domains shown) VH: EVQLLESGGGLVQPGGSLRLSCAASGFTFSKYFMFWVRQAPGKGLEWVSVISPSGGMTRYADSVKGRFTISRDNSKNTLYLQMNSLRAEDTAVYYCARVGYGGNSDYWGQGTLVTVSS VL: DIQMTQSPSSVSASVGDRLTIICRASQKINRWLAWYQQTPGNAPKLLIHSATSLQSGVPSRFSGSGSGTDFTLTINSLQPEDFATYYCQQADSFPLTFGGGTKVEIK | 0.82 |  |
| XPA23 light chain D28Y (Fab, V domains shown) VH: EVQLLESGGGLVQPGGSLRLSCAASGFTFSKYFMFWVRQAPGKGLEWVSVISPSGGMTRYADSVKGRFTISRDNSKNTLYLQMNSLRAEDTAVYYCARVGYGGNSDYWGQGTLVTVSS VL: DIQMTQSPSSVSASVGDRLTIICRASQYINRWLAWYQQTPGNAPKLLIHSATSLQSGVPSRFSGSGSGTDFTLTINSLQPEDFATYYCQQADSFPLTFGGGTKVEIK | 1.45 |  |

From patent US20110118131A1 (published 2011)
